In test [1] the target is T1, rat calcitonin receptor (rat, UniProt P32214 25-516).
T1 construct: whole, on cells; Cell membranes of transiently transfected BHK tk'ts 13 cells (Assay VIII); also called rCTR; rCT
T1 sequence (looked up): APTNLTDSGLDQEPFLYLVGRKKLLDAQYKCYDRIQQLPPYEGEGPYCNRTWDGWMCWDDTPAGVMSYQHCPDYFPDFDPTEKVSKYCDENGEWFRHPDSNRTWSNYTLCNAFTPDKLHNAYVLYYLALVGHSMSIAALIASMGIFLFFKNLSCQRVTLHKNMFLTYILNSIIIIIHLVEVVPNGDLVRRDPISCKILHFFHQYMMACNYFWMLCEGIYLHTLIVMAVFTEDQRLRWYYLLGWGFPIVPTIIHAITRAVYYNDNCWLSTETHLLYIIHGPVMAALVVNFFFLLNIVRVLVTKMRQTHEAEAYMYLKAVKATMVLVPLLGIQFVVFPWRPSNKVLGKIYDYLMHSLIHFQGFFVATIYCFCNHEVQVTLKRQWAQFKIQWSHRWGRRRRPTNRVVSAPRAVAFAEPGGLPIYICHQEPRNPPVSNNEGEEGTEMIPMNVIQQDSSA
As to the kind of experiment: ratio IC50 rat calcitonin receptor / IC50 rat amylin receptor.

Test [2] concerns the target T2, human calcitonin receptor (human, UniProt P30988 25-474).
T2 construct: whole, on cells; Cell membranes of a stably transfected BHK cell line (Assay VII); also called hCTR; hCT
T2 sequence (looked up): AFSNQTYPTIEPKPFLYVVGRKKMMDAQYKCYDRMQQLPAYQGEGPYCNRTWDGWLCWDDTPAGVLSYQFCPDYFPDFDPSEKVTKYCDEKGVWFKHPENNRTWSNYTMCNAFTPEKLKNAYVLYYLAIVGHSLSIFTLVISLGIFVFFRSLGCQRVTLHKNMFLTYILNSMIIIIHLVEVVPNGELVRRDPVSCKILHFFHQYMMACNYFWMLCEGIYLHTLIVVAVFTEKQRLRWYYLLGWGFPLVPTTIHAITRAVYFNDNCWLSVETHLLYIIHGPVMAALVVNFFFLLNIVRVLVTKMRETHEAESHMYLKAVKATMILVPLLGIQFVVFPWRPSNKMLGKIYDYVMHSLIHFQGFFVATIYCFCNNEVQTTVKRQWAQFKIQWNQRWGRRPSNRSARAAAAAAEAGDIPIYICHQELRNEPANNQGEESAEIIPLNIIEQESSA
Description: ratio IC50 human calcitonin receptor / IC50 human amylin receptor. In outline:
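Competition binding by SPA with cell membranes (35 ng/μL) and SPA beads in 50 mM Hepes pH 7.4 with 1 mM CaCl2, 5 mM MgCl2, 0.1% OA and 0.02% Tween20. Incubated 120 min at 25 °C with shaking, then counted.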

The target in test [3] is T1, rat calcitonin receptor. Description: SPA competition vs 125I-calcitonin, membranes with rat CTR (Assay VIII).
Test [4] addresses T3, rat amylin receptor (rat calcitonin receptor + rat RAMP 3) (rat, UniProt P32214 25-516; Q9JJ73 23-147).
T3 construct: whole, on cells; Cell membranes of transiently transfected BHK tk'ts 13 cells (Assay VI); also called rAmylin-R; rat amylin 3(a) receptor
T3 sequence (looked up) 1: T1 sequence (looked up)
T3 sequence (looked up) 2: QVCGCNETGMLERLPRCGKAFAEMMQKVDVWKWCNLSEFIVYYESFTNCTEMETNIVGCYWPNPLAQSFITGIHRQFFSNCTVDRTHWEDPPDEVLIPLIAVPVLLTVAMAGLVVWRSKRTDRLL
As to the kind of experiment: SPA competition vs 125I-rat amylin, membranes with rat CTR + rat RAMP3 (Assay VI).

The results in this text go back to patent US20140087995A1 (published 2014).

Numbered stars: 1 amine (or outer) side, 2 acyl side, 3 side chain; on linkers, the order of the positions; unused ones are H or OH. Bridge positions count the residues as written; N and C are the ends. Side chains are listed from the residue outwards. Ends that are not written are not given here. * marks the point of attachment. C20 diacid = O=C(O)CCCCCCCCCCCCCCCCCCC(=O)*; γGlu = O=C(O)[C@H](CCC(=O)[*:2])N[*:1]

B1: N^ε1-[(4S)-4-carboxy-4-[[(4S)-4-carboxy-4-(19-carboxynonadecanoylamino)butanoyl]amino]butanoyl]-[Asp14,Arg17,Pro21,Pro26,Asp35]-h-amylin (peptide)
peptide: K([γGlu-γGlu-C20 diacid])CNTATCATQRLADFLRHSSPNFGAPLSSTNVGSDTY-NH2
modifications: disulfide 2-7; N-terminus assumed
SMILES: CC(C)C[C@H](NC(=O)[C@H](CCCNC(=N)N)NC(=O)[C@H](CCC(N)=O)NC(=O)[C@@H](NC(=O)[C@H](C)NC(=O)[C@@H]1CSSC[C@H](NC(=O)[C@@H](N)CCCCNC(=O)CC[C@H](NC(=O)CC[C@H](NC(=O)CCCCCCCCCCCCCCCCCCC(=O)O)C(=O)O)C(=O)O)C(=O)N[C@@H](CC(N)=O)C(=O)N[C@@H]([C@@H](C)O)C(=O)N[C@@H](C)C(=O)N[C@@H]([C@@H](C)O)C(=O)N1)[C@@H](C)O)C(=O)N[C@@H](C)C(=O)N[C@@H](CC(=O)O)C(=O)N[C@@H](Cc1ccccc1)C(=O)N[C@@H](CC(C)C)C(=O)N[C@@H](CCCNC(=N)N)C(=O)N[C@@H](Cc1c[nH]cn1)C(=O)N[C@@H](CO)C(=O)N[C@@H](CO)C(=O)N1CCC[C@H]1C(=O)N[C@@H](CC(N)=O)C(=O)N[C@@H](Cc1ccccc1)C(=O)NCC(=O)N[C@@H](C)C(=O)N1CCC[C@H]1C(=O)N[C@@H](CC(C)C)C(=O)N[C@@H](CO)C(=O)N[C@@H](CO)C(=O)N[C@H](C(=O)N[C@@H](CC(N)=O)C(=O)N[C@H](C(=O)NCC(=O)N[C@@H](CO)C(=O)N[C@@H](CC(=O)O)C(=O)N[C@H](C(=O)N[C@@H](Cc1ccc(O)cc1)C(N)=O)[C@@H](C)O)C(C)C)[C@@H](C)O
notes: Acylated analogue of human amylin; also called compound 1
In general, IC50 refers to the midpoint of a concentration-inhibition curve. Consider B1, for which, in test [1], the “Ratio rCT/rAmylin binding” value was found to be 104. Further, in test [2], the “Ratio hCT/hAmylin binding” value came out at 27.6. In addition, the IC50 in test [3] stood at 135 nM; in test [4], 1.3 nM.

B2: N^ε1-[(4S)-4-carboxy-4-[[(4S)-4-carboxy-4-(19-carboxynonadecanoylamino)butanoyl]amino]butanoyl]-[Asp14,Arg17,Pro21,Pro27,Asp35]-h-amylin (peptide)
peptide: K([γGlu-γGlu-C20 diacid])CNTATCATQRLADFLRHSSPNFGAIPSSTNVGSDTY-NH2
modifications: disulfide 2-7; N-terminus assumed
SMILES: CC[C@H](C)[C@H](NC(=O)[C@H](C)NC(=O)CNC(=O)[C@H](Cc1ccccc1)NC(=O)[C@H](CC(N)=O)NC(=O)[C@@H]1CCCN1C(=O)[C@H](CO)NC(=O)[C@H](CO)NC(=O)[C@H](Cc1c[nH]cn1)NC(=O)[C@H](CCCNC(=N)N)NC(=O)[C@H](CC(C)C)NC(=O)[C@H](Cc1ccccc1)NC(=O)[C@H](CC(=O)O)NC(=O)[C@H](C)NC(=O)[C@H](CC(C)C)NC(=O)[C@H](CCCNC(=N)N)NC(=O)[C@H](CCC(N)=O)NC(=O)[C@@H](NC(=O)[C@H](C)NC(=O)[C@@H]1CSSC[C@H](NC(=O)[C@@H](N)CCCCNC(=O)CC[C@H](NC(=O)CC[C@H](NC(=O)CCCCCCCCCCCCCCCCCCC(=O)O)C(=O)O)C(=O)O)C(=O)N[C@@H](CC(N)=O)C(=O)N[C@@H]([C@@H](C)O)C(=O)N[C@@H](C)C(=O)N[C@@H]([C@@H](C)O)C(=O)N1)[C@@H](C)O)C(=O)N1CCC[C@H]1C(=O)N[C@@H](CO)C(=O)N[C@@H](CO)C(=O)N[C@H](C(=O)N[C@@H](CC(N)=O)C(=O)N[C@H](C(=O)NCC(=O)N[C@@H](CO)C(=O)N[C@@H](CC(=O)O)C(=O)N[C@H](C(=O)N[C@@H](Cc1ccc(O)cc1)C(N)=O)[C@@H](C)O)C(C)C)[C@@H](C)O
notes: Acylated analogue of human amylin; also called compound 2
As for B2, the “Ratio rCT/rAmylin binding” value in test [1] was 366. Also, the “Ratio hCT/hAmylin binding” value in test [2] is 47.5. Besides, the results for the 50% inhibitory concentration (IC50) in test [3] and in test [4] were 108 nM and 0.295 nM, respectively.
